According to PMC5463365, “Assembly and use of high-density recombinant peptide chips for large-scale ligand screening is a practical alternative to synthetic peptide libraries” (BMC Genomics, 2017):
Entries after “also recorded” stand apart in the source; their conditions may differ. Where no end group is shown, it is not given here.

How the values were obtained:
Streptavidin [1] = biological target: T1, Streptavidin (Streptomyces avidinii, UniProt P22629); experiment: Recombinant peptide chip screen with HRP- or Europium-labeled Streptavidin; assay type: binding; conditions: for effect of dimerisation on chip signal/affinity: 12 glycine linker spaced dimer versus monomer, HRP-Streptavidin signal
T1 construct: purchased ForteBio
T1 sequence (P22629 25-183): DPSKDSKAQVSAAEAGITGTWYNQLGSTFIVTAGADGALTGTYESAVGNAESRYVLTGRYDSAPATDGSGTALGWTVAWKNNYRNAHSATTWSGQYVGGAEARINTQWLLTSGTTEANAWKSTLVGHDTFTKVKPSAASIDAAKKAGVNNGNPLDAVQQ
Experimental: Competent E. coli One Shot® BL21 Star™ (DE3) cells (Thermo Fisher Scientific) carrying the gene for T7 RNA polymerase under control of isopropyl β-D-1-thiogalactopyranoside (IPTG)-inducible lacUV5 promotor were transformed with respective expression libraries, and plated onto large square Q-trays. Individual colonies were robotically picked (QPix2^xt, Genetix) into suitable 384 well plates containing liquid LB medium supplemented with 100 μg/ml ampicillin, and cultivated overnight at 37 °C. Alternative route was to directly split appropriately diluted (as confirmed by plating onto LB-amp agar plates) transformation reactions (after 1 h recovery in antibiotics-free SOC medium) into 384 well plates via a programmable Flexdrop Precision Reagent Dispenser (Perkin Elmer). The next day, clones were robotically arrayed onto a 0.45 μm pore size PROTRAN™ nitrocellulose sheet (Whatman) cut in the form of the original masterplate, applying a 1 × 1, 5 × 1, 5 × 5, or 10 × 10 pattern (such that each clone or pool is gridded in 1, 5 or 25 or 100 replicates each). Following a 6 to 8 h incubation interval on top of solid LB at 30 °C, peptide expression was achieved by transferring these membrane-imprinted clones onto LB agar plates supplemented with 1 mM IPTG, followed by a 2 h incubation interval at 37 °C. Cells were then directly lysed via transfer into a Tris-buffered saline (TBS) solution containing 0.05% Tween-20 and 3% blotting-grade milk powder. Membranes were in refined dot-blot reminiscent procedure challenged with (horseradish peroxidase) HRP- or Europium labeled Streptavidin (in 1:1000 to 1:5000 dilution in TBS-0.05% Tween) for 1 h at RT, washed 3 times in TBS-0.05% Tween, and scanned with either a ChemiDoc imaging system (Quantity One® analysis software, BioRad) after exposure to Immobilon™ Western chemiluminescent substrate (Millipore, Merck), or directly with a prototypic SpectraMax® Paradigm® multi-mode detection Platform (ScanLater™ Western Blot Detection Cartridge, Molecular Devices).
Screening parameters were first of all optimized: signal-to-background ratios and realizable detection limits were assessed by analyzing the associations between published Strep-tagI and II peptides (as well as 12G linker spaced dimer derived thereof) and either commercially available HRP- or fluorescence labeled Streptavidin. […] We next further optimized E. coli growth times (from 0 to 24 h at 2 different temperatures), induction intervals, critical cell densities required, printing conditions, lysis and detection conditions, etc. (Fig. 2).

Streptavidin [2] = biological target: T1, Streptavidin; set-up: method as in 4 sources, one per row (each row's own in cited_ref): ref see discussion section ([26], [33], [34]) ||| ref [35], [36] = [35]; PMID 26406477; doi:10.1371/journal.pone.0139137; 35. Fogen D Engineering Streptavidin and a Streptavidin-Binding Peptide with Infinite Binding Affinity and Reversible Binding Capability: Purification of a Tagged Recombinant Protein to High Purity vi || [36]; PMID 11722181; doi:10.1006/prep.2001.1515; 36. Keefe AD One-step purification of recombinant proteins using a nanomolar-affinity streptavidin-binding peptide, the SBP-Tag Protein Expr Purif 2001 23 3 440 446 10.1006/prep.2001.1515 11722181 ||| ref [37] = [37]; PMID 14680960; doi:10.1016/j.pep.2003.08.014; 37. Lamla T Erdmann VA The Nano-tag, a streptavidin-binding peptide for the purification and detection of recombinant proteins Protein Expr Purif 2004 33 1 39 47 10.1016/j.pep.2003.08.014 14680960 ||| ref [26], [33], [34] = [26]; PMID 8636976; doi:10.1006/jmbi.1996.0061; 26. Schmidt TG Molecular interaction between the Strep-tag affinity peptide and its cognate target, streptavidin J Mol Biol 1996 255 5 753 766 10.1006/jmbi.1996.0061 8636976 || [33]; PMID 10796988; doi:10.1016/S1050-3862(99)00033-9; 33. Skerra A Schmidt TG Applications of a peptide ligand for streptavidin: the Strep-tag Biomol Eng 1999 16 1–4 79 86 10.1016/S1050-3862(99)00033-9 10796988 || [34]; PMID 11910031; doi:10.1110/ps.4150102; 34. Korndorfer IP Skerra A Improved affinity of engineered streptavidin for the Strep-tag II peptide is due to a fixed open conformation of the lid-like loop at the binding site Protein Sci 2002 11 4; conditions: equilibrium dissociation constant; ref [35], [36]; read-out: literature KD of SBP-tag, Streptavidin; cited from earlier work

Substance	effect of dimerisation on chip signal/affinity (Streptavidin [1])	binder strength on test peptide chip (Streptavidin [1]; in comparison to negative control, HRP- or fluorescence-labeled Streptavidin)	Kd (Streptavidin [2]) [nM]
B5 dimer: B5 dimerized, spaced by an analogous 12 glycine linker (VSHPQAPFGGGGGGGGGGGGVSHPQAPF; not fully specified)	could not increase affinity by linear dimerization		
Dim12G: 12 glycine (G) linker spaced dimer resembling a published Twin-conformation; fusion of Strep-tagI and Strep-tagII monomers [reference compound]	performs superior in comparison to a single monomer	higher affinity	
F14.5 dimer: 12G–spaced dimeric F14.5 (CSGSYGSCGGGGGGGGGGGGCSGSYGSC; cysteine pairing not given here; also: fused to GST, end not given here)	remained fairly constant; also recorded: could not increase affinity by linear dimerization		
SBP-tag: 38 AA encompassing SBP-tag			2.5
